The supplement of paper PMC9170038

System: MS2 coat protein
Test: apparent KD of MS2 coat protein; designed switch direction (-1 OFF switch, 1 ON switch): -1; higher = weaker reporter binding
In short: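 Normalised cluster fluorescence was curve-fitted, and each design's median over clusters is its apparent KD. Before this, SNAP-549-labelled MS2 coat protein was titrated from 0.7 or 1.5 nM, doubling to 3 µM, over RNA switches transcribed on Illumina chips by stalled E. coli RNA polymerase. Titrations had no input, 200 uM small-molecule ligand, or an oligonucleotide input, and steps lasted 0.8–1.5 h (lowest) to 10–20 min (highest).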

[1] = input ligand: microRNA oligo, concentration not stated
[2] = Eterna round: R95, input ligand: microRNA oligo, concentration not stated
[3] = Eterna round: R95, input ligand: FMN 200 uM
[4] = Eterna round: R95, input ligand: none

| Sequence | apparent KD of MS2 coat protein (input ligand: FMN 200 uM) [nM] | apparent KD of MS2 coat protein [1] [nM] | apparent KD of MS2 coat protein (input ligand: none) [nM] | apparent KD of MS2 coat protein [2] [nM] | apparent KD of MS2 coat protein [3] [nM] | apparent KD of MS2 coat protein [4] [nM] |
| --- | --- | --- | --- | --- | --- | --- |
| CUUUUGUGAGGAUAUUAGUAGUAAAUAAAUAAAAUUAUUACUGAGAAGGCACAUGAGGAUCACCCAUGUUCCUC [salish99_ex4_r3_062] (Eterna round: R96, puzzle: Exclusion 4) | 533 | 32.9 | 36.6 |  |  |  |
| CUUUUGUGAGGAUAUUAGUAGUAAAUAAAUAAAAUUAUUACUGAGAAGGCACAUGAGGAUCACCCAUGUUCCUC [salish99_ex4_r3_062] (puzzle: Exclusion 4) |  |  |  | 35.1 |  |  |
| CUUUUGUGAGGAUAUUAGUAGUAAAUAAUUAAAAUUAUUACUGAGAAGGCACAUGAGGAUCACCCAUGUUCCUC [Salish 062 v15] (Eterna round: R97, puzzle: Exclusion 4) | 752 |  | 42.9 |  |  |  |
| CUUUUUGUCGAGGAUAUGCACCAGCUCACUGACGCAGAAGGCGACACAUGAGGAUCACCCAUGUCAGUUCGCGU [salish99_ex6_r004_433] (Eterna round: R97, puzzle: Exclusion 6) | 35.3 |  | 20 |  |  |  |
| GAAAACCAAGGAUAUACAUGAGGAUCACCCAUGUAGGUUGGGACGCCAUAAAGGCGAUGUAGAAGGUGGGAAAA [Inansoge] (puzzle: Exclusion 3) |  |  |  | 21.6 |  |  |
| GAAAACGAAGAGGAUAUUUGAUAUCAAAGCUUCAAAGAAGGCUUCACAUGAGGAUCACCCAUGUGAUCUUCAAU [Mat - Exclusion 6 - JL Mod - D15] (Eterna round: R97, puzzle: Exclusion 6) | 212 |  | 24.5 |  |  |  |
| GAAAACGCAGAGGAUAUUUCAGAUCCUAGCUGCAAAGAAGGCUGCACAUGAGGAUCACCCAUGUGGUCCUGAAA [Quesina mod] (Eterna round: R97, puzzle: Exclusion 6) | 116 |  | 38.6 |  |  |  |
| GAAAACGUAGGAUAUUAAUACUUAGACAUGAGGAUCACCCAUGUUUGGUGGGUCGGAGAAUGAGAAGGGCGAUGAA [EX5 #13] (Eterna round: R97, puzzle: Exclusion 5) | 107 |  | 153 |  |  |  |
| GAAAAGAAAGGAUAUACAGGGAAAUGAACCGCACGUAAACCACAUGAGGAUCACCCAUGUAGAAGGUUCAGUGC [Edenusra] (puzzle: Exclusion 2) |  |  |  | 10.6 |  |  |
| GAAAAGGUAGGAUAUACGAAAAAAAAGGCUAGAAAAAAAACACAUGAGGAUCACCCAUGUAGAAGGACCAAAAG [salish99_ex2_r3_068] (puzzle: Exclusion 2) |  |  |  | 28.8 | 28.7 | 24 |
| GAAAAGGUAGGAUAUACGAAAAAAAAGGGCAGAAAAAAAACACAUGAGGAUCACCCAUGUAGAAGGACCAAAAG [salish99_ex2_r3_065] (puzzle: Exclusion 2) |  |  |  | 24.3 | 26.6 | 23.2 |
| GAAAAGGUAGGAUAUACGAAAAAAAAGGGUACAAAAAAAACACAUGAGGAUCACCCAUGUAGAAGGACCAAAAG [salish99_ex2_r3_063] (puzzle: Exclusion 2) |  |  |  | 25.6 | 36.8 | 20.8 |
| GAAAAGGUAGGAUAUACGAAAAAAAAGGGUAGAAAAAAGACACAUGAGGAUCACCCAUGUAGAAGGACCAAAAG [salish99_ex2_r3_019] (puzzle: Exclusion 2) |  |  |  | 21.7 | 62.5 | 30.3 |
| GAAAAGGUAGGAUAUACGAAAAAAAAGGGUAGAAGAAAAACACAUGAGGAUCACCCAUGUAGAAGGACCAAAAG [salish99_ex2_r3_022] (puzzle: Exclusion 2) |  |  |  | 18.6 | 107 | 23.5 |
| GAAAAGGUAGGAUAUACGAAAAAAAAGGGUAGAGAAAAAACACAUGAGGAUCACCCAUGUAGAAGGACCAAAAG [salish99_ex2_r3_023] (puzzle: Exclusion 2) |  |  |  | 27.1 | 84.8 | 26.7 |
| GAAAAGGUAGGAUAUACGAAAAGAAAGGGUAGAAAAAAAACACAUGAGGAUCACCCAUGUAGAAGGACCAAAAG [salish99_ex2_r3_027] (puzzle: Exclusion 2) |  |  |  | 26.9 | 58.7 | 25 |
| GAAAAGGUAGGAUAUACGGAAAAAAAGGGUAGAAAAAAAACACAUGAGGAUCACCCAUGUAGAAGGACCAAAAG [salish99_ex2_r3_030] (puzzle: Exclusion 2) |  |  |  | 32.5 | 60.9 | 27.4 |
| GAAAAGGUAGGAUAUACGUAAAAAAAGGGUAGAAAAAAAACACAUGAGGAUCACCCAUGUAGAAGGACCAAAAG [salish99_ex2_r3_087] (puzzle: Exclusion 2) |  |  |  | 24.7 | 88.3 | 20.6 |

| Sequence | apparent KD of MS2 coat protein (input ligand: FMN 200 uM) [nM] | apparent KD of MS2 coat protein [1] [nM] | apparent KD of MS2 coat protein (input ligand: none) [nM] | apparent KD of MS2 coat protein [2] [nM] | apparent KD of MS2 coat protein [3] [nM] | apparent KD of MS2 coat protein [4] [nM] |
| --- | --- | --- | --- | --- | --- | --- |
| GAAAAUCGUAAGGAUAUCAGCGAAGAAGUACACUGAGAAGGUAUGACAUGAGGAUCACCCAUGUAGCCCGCUUA [Eternabot (L1) Solution 38] (Eterna round: R97, puzzle: Exclusion 6) | 18 |  | 13.2 |  |  |  |
| GAAAAUUGAGGAUAUCCAAAAGGCCACAUGAGGAUCACCCAUGUGUAUCCUCGGCCCAAAGGAGAAGGCAAGAUAA [EX5 A.23] (Eterna round: R97, puzzle: Exclusion 5) | 974 |  | 5080 |  |  |  |
| GAACCAUGAGGAUAUUCUGAUCCUAACAUGAGGAUCACCCAUGUGAGUACAAAAGUACUCGAAGAAGGCAUGGUUC [Omei Ex5 B2] (Eterna round: R97, puzzle: Exclusion 5) | 819 |  | 428 |  |  |  |
| GAACCUUGAGGAUAUACAUAACAACAAAGCCUCACGUGCCAACAUGAGGAUCACCCAUGUAGAAGGCAAGCCAA [Mod R3 Insanara 9 - Jieux - Exclusion 2] (Eterna round: R97, puzzle: Exclusion 2) | 19 |  | 16.2 |  |  |  |
| GAAUAGCGAGGAUAUGCAAUGAAGGUAGUACGAUAUGGCUGACAUGAGGAUCACCCAUGUAGAAGGCGCUGAUC [EX2 #11] (Eterna round: R97, puzzle: Exclusion 2) | 116 |  | 65.8 |  |  |  |
| GAAUAGGCAGGAUAUACAUGAGGAUCACCCAUGUGCAAGCGAAAGGUACGUGAACAACGUAGAAGGGCCUAAAC [ChP 13.04.2015 #10] (puzzle: Exclusion 3) |  |  |  | 12.9 | 24.3 | 13.8 |
| GACAGGGCAGGAUAUCGAGAUCCUCACAUGAGGAUCACCCAUGUUCAGUCGAAAGACUGACGAGAAGGGCCGUGUC [Omei Ex5 E3] (Eterna round: R97, puzzle: Exclusion 5) | 36.8 |  | 33.2 |  |  |  |
| GACCCUAGGGUCAGACGCACAAGCUUUUUGCUCGUUUUAACAUGAGGAUCACCCAUGUCUAGUGGAUCUGAUCGGGC [Ongege] (puzzle: Sensor v3, turn-off variant 2) |  |  |  | 151 | 26.3 | 29.5 |
| GACUGAACGUGGUCUGGUUACAUGAGGAUCACCCAUGUAGGUCUAAGAACAUGUCUUUUGUACGCUCGUCUUAUAUA [JR_SV3TOV1_Sub066] (puzzle: Sensor v3, turn-off variant 1) |  |  |  | 38.1 | 16.7 | 15 |
| GACUGAGCAGGAUAUACAUGAGGAUCACCCAUGUUGGUUCAGCGACGAUAGUCGCAAUGUAGAAGGGCUCAGUC [E3/9-D2] (Eterna round: R97, puzzle: Exclusion 3) | 273 |  | 203 |  |  |  |
| GACUGGACAGGAUAUGUUCUUGAGCACUUGAGGAUCACCCAAGUCAUCAAGAACUCAGGCACAGAAGGGUUUAUGA [salish99_ex5_r4_008] (Eterna round: R97, puzzle: Exclusion 5) | 29.6 |  | 13.5 |  |  |  |
| GACUUCUCUGAGGAUAUUGCAUCAUACGAUCUAUAAGAAGGCAGAACAUGAGGAUCACCCAUGUGGGUUUCUAG [Bingo-Bango-28] (Eterna round: R97, puzzle: Exclusion 6) | 70.2 |  | 38.3 |  |  |  |
| GAGAAGGUAGGAUAUACGAAUAAAUAGGGUAGUAAUAAGACACAUGAGGAUCACCCAUGUAGAAGGACCAAGAG [Mat - Exclusion 2 - Mod of my Tesla design - D38] (puzzle: Exclusion 2) |  |  |  | 19.3 | 37 | 21.1 |
| GAGACAUGAGGAUCACCCAUGUGUGGUCCAAGGCAUGUCGUCGAGGAUAUGCAGGACGUCGUCUUGCAGAAGGCGACUAAAUAC [Teatarti] (Eterna round: R96, puzzle: Exclusion NG 3) | 17.8 | 19.5 | 105 |  |  |  |
| GAGAUGCGGAUAGGAUAUGGAAGAAAAGAAGGAUUAGAAGGGUUGGUUAGAAUACAUGAGGAUCACCCAUGUGAAUCAUGAGAA [AK ExNG1-2.3] (Eterna round: R96, puzzle: Exclusion NG 1) | 99.2 | 81.1 | 128 |  |  |  |
| GAGAUGUGAGGAUAUCUAGACCGCGGAAGAGCCGCAGUCCGAGAGAAGGCACAUGAGGAUCACCCAUGUGAUGA [Teorgeor] (puzzle: Exclusion 4) |  |  |  | 36 |  |  |
| GAGCAGCGAGGAUAUACAGACGGGUCCAGUACGUGUCUUGGACUUGAGGAUCACCCAAGUAGAAGGCGCCACAG [salish99_ex2_r4_605] (Eterna round: R97, puzzle: Exclusion 2) | 42.6 |  | 25.8 |  |  |  |
| GAGGAACAUGAGGAUCACCCAUGUGAGGAUAUGCAUAGUGAGCUAGUAGACGUUUAUUGCAGAAGGUACACUGA [JR_Exclu1_Sub080] (puzzle: Exclusion 1) |  |  |  | 25.3 |  |  |
